# d = 2'-deoxy (DNA); r = 2'-OH (RNA)
# Key:
# [1] = test system: ICAM1 expression or Bst2 expression; assay: RT-PCR of Bst2 and ICAM1 expression in IFNγ-treated HUVEC after siRNA; format: cell-based, human
# Procedure: (§1) HUVECs were cultured in 12-well plates with or without transfection of Bst2 siRNA or control siRNA for 6 hr, then treated with or without IFNγ for 24 hr. In some experiments, cells were treated with crude media containing Bst2 decoy or mouse anti-human ICAM1 antibodies. After a wash with PBS (phosphate buffered saline), U937 cells were resuspended in serum free medium at 2×10^6 cells/ml. Assays were initiated by the addition of 200 ul U937 cells to HUVEC for a final volume of 1 ml. After 4 hr at 37° C., unbound U937 cells were removed by washing plates three times with PBS. Bound cells were fixed by the addition of 4% paraformaldehyde in PBS, and the bound cells were counted under microscopy in different fields. All statistical analyses were performed in Excel and statistical significance were evaluated with Student's t test. In some experiments, RNA samples were obtained from HUVECs after treatment with IFNγ and/or siRNAs, and real-time polymerase chain reaction (RT-PCR) analyses were performed.
# RT-PCR analyses were performed.
# [2] = test system: HUVECs and U937 cells; assay: Heterotypic aggregation/adhesion between IFN-γ-treated HUVECs and U937 cells; format: cell-based, human
# Procedure: HUVECs (1−5×10^4 cells/ml) were seeded onto a 12-well cell culture plate. After one day, the medium was exchanged with a low-serum medium containing 0.5% FBS, and the cells were pretreated with interferon-gamma (IFN-γ; Calbiochem) in a final concentration 10 ng/ml for 24 hrs. Then, the pretreated HUVECs were co-cultured with U937 cells (2×10^6 cells/ml, 500 μl) at 37° C. for 4 hrs. The co-culture was washed with phosphate buffer three or four times, and the remaining cells were fixed with 4% paraformaldehyde and microscopically observed.
# HUVECs were transfected with an expression vector for Bst2, treated with or without IFN-γ and then transfected with Bst2 siRNA. These cells were assessed for U937 cell adhesion.
# as §1
# [3] = In vivo stability of PEG-conjugated Bst2 decoy in rats (ELISA of blood samples); parameters: species or system rat; details: tail vein, 0.4 to 2 mg/kg, compared to Bst2 decoy
# Procedure: The PEG-conjugated forms of Bst2 decoy, prepared in Example 11-1, were injected into the tail vein of 7 week-old male Sprague-Dawley rats in a dose of 0.4 to 2 mg/kg. A negative control group was injected with an equal dose of physiological saline. Also, an equal dose of Bst2 decoy protein was used as a positive control. Blood samples were collected before drug administration, and 2 min, 5 min, 10 min, 30 min, 1 hr, 2 hrs, 6 hrs, 12 hrs and 24 hrs after drug administration from the jugular vein using a cannula. The collected blood samples were analyzed by ELISA. A 96-well plate was coated with an anti-Bst2 decoy antibody (100 ng/ml in PBS) at 4° C. for 8 hrs or longer, and was blocked with albumin in PBS at 37° C. for 2 hrs. The plate was reacted with a proper dilution of rat serum or Bst2 decoy (standard sample) at 37° C. for 2 hrs. The plate was then reacted with a monoclonal antibody (mAb conjugated with horseradish peroxidase, Roche Inc.) recognizing the histidine tag added to the C-terminus of Bst2 decoy at 37° C. for 2 hrs. After being well washed, the plate was treated with a substance of peroxidase, and absorbance was measured at 450 nm. Quantitation of the PEG-conjugated Bst2 decoys present in blood was performed using the standard samples (FIG. 18). […]
# [4] = test system: mouse model of asthma; assay: Ovalbumin-induced mouse model of asthma: infiltrating cells in bronchoalveolar lavage; format: in vivo; details: ovalbumin-sensitized mice
# Procedure: (§2) A mouse model of asthma was prepared by sensitizing mice (C57B6, 8 weeks) with ovalbumin. In detail, mice were initially sensitized for five continuous days by intranasal injection of ovalbumin. After three weeks, mice were intranasally sensitized again with ovalbumin for five continuous days. One week after the secondary sensitization, mice were challenged intranasally with ovalbumin three times every 24 hrs to induce asthma. Herein, a Bst2 decoy was intravenously injected into mice 30 min before sensitization with ovalbumin, and was injected into mice 30 min before the first sensitization and the last injection of ovalbumin. Three days after the last injection, serum samples, lung tissues, and the like were collected from mice.
# A mouse model of asthma was prepared as described in Example 8-1.
# The effect of Bst2 decoy-Fc fusions on immune cell infiltration was assessed as described in Example 8-2. When ovalbumin-sensitized mice were treated with a Bst2 decoy, the total number of infiltrating cells was decreased and, especially, the number of neutrophils, eosinophils and lymphocytes except for macrophage was decreased in bronchoalveolar lavage (BAL) (FIG. 27).
# A mouse model of asthma was prepared as described in Example 8-1. The effect of anti-Bst2/Damp1 antibodies on immune cell infiltration was assessed as described in Example 8-2. […]
# [5] = test system: U937 cells; assay: Competitive inhibition of U937 cell binding to Bst2 decoy coated plates; parameters: species or system human; details: cells pre-incubated with fusion proteins 2 hrs
# Procedure: Competitive inhibition of Fc fusion proteins in the binding between BST2 decoy and cells was measured as follows. Flat-bottomed 96-well plates were coated with Bst2 decoy (50 ug/ml) with sodium bicarbonate (100 mM, pH 9.5) for 2 hrs at 37° C. The plates were washed with PBS (pH 7.4) and incubated with 1% bovine serum albumin (BSA) at 25° C. After a rinse with PBS (pH 7.4) containing 1 mM CaCl2 and 0.5 mM MgCl2, U937 cells (1×10^6/ml) were added to each Bst2-coated well. Before the addition, cells were pre-incubated with BST2 decoy-Fc fusion proteins for 2 hrs at 37° C. Bound cells were counted as described in Example 20.
# [6] = test system: IL-4, IL-5 and IL-13; assay: Ovalbumin-induced mouse model of asthma: cytokines in lung tissue (immunoblot); format: in vivo; details: ovalbumin-sensitized asthmatic mice
# Procedure: as §2
# When a Bst2 or Damp1 decoy was injected into a mouse model of asthma which was induced by sensitization and challenge with ovalbumin, expression levels of cytokines (interleukin-4 (IL-4), interleukin-5 (IL-5) and interleukin-13 (IL-13)) were measured as follows. […] The bound primary antibodies were detected with a HRP-conjugated secondary antibody (anti-rabbit HRP-conjugated IgG) using ECL reagent.
# Expression of 11-4, IL-5 and IL-13 was measured in the murine asthma model as described in Example 8-3 after injection with Bst2 decoy or Bst2 decoy Fc fusion proteins.
molecule,measurement,setting,value
"Bst2 siRNA: siRNA against Bst2 mRNA target sequence SEQ ID NO:5; sense SEQ ID NO:6, antisense SEQ ID NO:7 (sense UUGUCCGCGAUUCUCACGCTT; antisense GCGUGAGAAUCGCGGACAATT; sugars from the 5' end r19 d2, backbone not given here)",ICAM1 expression,[1],does not affect
same,U937 cell adhesion to HUVECs,"[2]; HUVECs transfected with Bst2 expression vector, with or without IFN-γ",decreased U937 cell adhesion
same,cell adhesion between untransfected HUVEC and U937 cells,"[2]; untransfected HUVEC, IFNγ stimulation",inhibitory effect
"PEG-conjugated Bst2 decoy: aldehyde PEG-conjugated human Bst2 decoy sample (conjugate, UniProt Q10589 49-161, looked up, extracellular domain aldehyde PEG conjugate, aldehyde PEG-conjugated human Bst2 decoy sample) extracellular domain: NSEACRDGLRAVMECRNVTHLLQQELTEAQKGFQDVEAQAATCNHTVMALMASLDAEKAQGQKKVEELEGEITTLNHKLQDASAEVERLRRENQVLSVRIADKKYYPSSQDSS",metabolic degradation (in vivo stability),[3],improved metabolic degradation
"mouse Damp1 decoy: soluble Damp1 protein fragment having the amino acid sequence of SEQ ID NO:2 (protein, listed as Mus musculus) FAVTANSVACRDGLRAQAECRNTTHLLQRQLTRTQDSLLQAETQANSCNLTVVTLQESLEKKVSQALEQQARIKELENEVTKLNQELENLRIQKETSSTVQVNS",cell-cell interaction between human endothelial cells and human monocytic U937 cells,[2],inhibits cell-cell interaction
"2-15: anti-Bst2/Damp1 monoclonal antibody; heavy chain variable SEQ ID NO:77, kappa SEQ ID NO:88 (antibody, V domains shown, 2-15 heavy chain variable region amino acid sequence; 2-15 kappa chain variable region amino acid sequence) VH: MAQSVKESEGRLVTPGTPLTLTCTVSGFSLSNSGMSWVRQAPGKGLEWIGLINSYGTTYYASWAKGRFTISKTSTTVELKITSPTTEDTATYFCARGAGSSYGLWGQGTLVTVSSAS VL: QAAELVMTQTPSSTSTAVGDTVTIKCQASQSIGSNLAWYQQKPGQPPKILIYSASNLASGVPSRFKGSGSGTEYTLTISGVQREDAATYYCLGSDSSWDTVFGGGTELEILRTV","number of infiltrating cells in bronchoalveolar lavage (total, neutrophils, eosinophils, lymphocytes)",[4],did not block immune cell infiltration significantly
"Bst2 decoy-IgG Fc fusion proteins: recombinant chimeric fusion proteins of the extracellular domain of human Bst2 and the Fc region of human IgG (protein, left off: a dimerising Fc or GST) NSEACRDGLRAVMECRNVTHLLQQELTEAQKGFQDVEAQAATCNHTVMALMASLDAEKAQGQKKVEELEGEITTLNHKLQDASAEVERLRRENQVLSVRIADKKYYPSSQD",inhibition of U937 cell binding to Bst2 decoy coated cell culture plates,[5],concentration-dependent inhibition
same,"cytokine levels (IL-4, IL-5, IL-13) in lung tissue",[6],decreased

# Reference: patent US8329186B2, “Treatment of inflammation using BST2 inhibitor” (Isu Abxis Co., Ltd, priority 2004, dated 2012)
